Data set [1] deals with purified YibK protein with R146C (21.6 kDa monomer) (UniProt P44868). The data set is described as follows: SDS-PAGE without reducing agent and Western blot (disulfide-linked dimer); purified YibK protein, no reducing agent.
Data set [2] concerns the molecule itself. Put plainly: two-hybrid.

The record followed here is paper PMC8514426 (Nature Communications, 2021).

What is called stoichiometry N is the number of molecules, sites or subunits per partner or assembly.

As to “purified YibK protein with R146C (21.6 kDa monomer) (from UniProt P44868) (natural protein)”, the stoichiometry N in data set [1] came out at 2.

B1: wild-type YibK–SH2 (expressed as SS–YibK–SH2) (natural protein)
chain: MLDIVLYEPEIPQNTGNIIRLCANTGFRLHLIEPLGFTWDDKRLRRSGLDYHEFAEIKRHKTFEAFLESEKPKRLFALTTKGCPAHSQVKFKLGDYLMFGPETRGIPMSILNEMPMEQKIRIPMTANSRSMNLSNSVAVTVYEAWRQLGYKGAVNLPEVK
notes: also called WT; not shown: SH2 domain of ABL1 kinase, C-terminal, kept
On to B1, for which the “fold P_cadBA transcriptional activation over cytoplasmic YibK–SH2” value in data set [2] is 66 fold.
